Measured values reported in the supplement of paper PMC10065799, “High-throughput profiling of sequence recognition by tyrosine kinases and SH2 domains using bacterial peptide display” (eLife, 2023).

What follows are sequences tested on Fer (mouse) (assay: phosphorylation enrichment, bacterial display (enrichment ratio); higher = better substrate or ligand; peptides without Tyr show the background).
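Further: 11-residue human phosphosite peptides and single-mutation variants displayed on the E. coli surface, counted by deep sequencing, each peptide's frequency after selection divided by its frequency in the unselected input library; frequency after pTyr selection over input frequency; kinase dosed for 20-30% of maximal phosphorylation in three min.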

| Sequence | phosphorylation enrichment |
| --- | --- |
| HSGIFYKPESL [L2HGDH_Y103_YF] | 1.05 |
| LNCDRYSVGLL [PDE6A_Y275] | 0.898 |
| KVPELYEIHKE [BCR_Y554] | 0.976 |
| WEQELYSQLVY [WAS_Y102] | 15.7 |
| RVLQLYGCSPS [ASTL_Y279_K277Q] | 1.15 |
| ADSLRYIFPKL [EIF2B3_Y92_YF] | 0.31 |
| IVEYAYNDKAV [PUM3_Y259_I264V] | 0.455 |
| YPLELYERVRI [PRKCG_Y312_M317I] | 4.38 |
| FDNSVYQKTTE [LDLR_Y828_P826S] | 0.374 |
| SVFNNYIQTLG [CTNND1_Y174_S171F] | 0.391 |
| DAKAIYDFTDT [PDK1_Y136] | 5.43 |
| TIMTNYNPNYC [ALK_Y1092_D1091N] | 0.46 |
| TEYSQYMRRKN [MAX_Y73_I71S] | 0.443 |
| HLWRIYYDITD [MMP27_Y307] | 1.64 |
| MKKQKYGRIIM [HSD17B4_Y143] | 0.565 |
| PPEFSYGLQTQ [SRA1_Y35_Q32E] | 0.453 |

These sequences were tested on c-Src in the same assay as above.

| Sequence | phosphorylation enrichment |
| --- | --- |
| HSGIFYKPESL [L2HGDH_Y103_YF] | 1.45 |
| LNCDRYSVGLL [PDE6A_Y275] | 0.823 |
| KVPELYEIHKE [BCR_Y554] | 0.603 |
| WEQELYSQLVY [WAS_Y102] | 7.33 |
| RVLQLYGCSPS [ASTL_Y279_K277Q] | 1.38 |
| ADSLRYIFPKL [EIF2B3_Y92_YF] | 0.457 |
| IVEYAYNDKAV [PUM3_Y259_I264V] | 0.492 |
| YPLELYERVRI [PRKCG_Y312_M317I] | 0.493 |
| FDNSVYQKTTE [LDLR_Y828_P826S] | 0.657 |
| SVFNNYIQTLG [CTNND1_Y174_S171F] | 0.402 |
| DAKAIYDFTDT [PDK1_Y136] | 5.87 |
| TIMTNYNPNYC [ALK_Y1092_D1091N] | 0.45 |
| TEYSQYMRRKN [MAX_Y73_I71S] | 0.523 |
| HLWRIYYDITD [MMP27_Y307] | 4.21 |
| MKKQKYGRIIM [HSD17B4_Y143] | 0.422 |
| PPEFSYGLQTQ [SRA1_Y35_Q32E] | 0.486 |

These sequences were tested on c-Abl (mouse) in the same assay as above.

| Sequence | phosphorylation enrichment |
| --- | --- |
| HSGIFYKPESL [L2HGDH_Y103_YF] | 3.79 |
| LNCDRYSVGLL [PDE6A_Y275] | 0.929 |
| KVPELYEIHKE [BCR_Y554] | 0.714 |
| WEQELYSQLVY [WAS_Y102] | 1.55 |
| RVLQLYGCSPS [ASTL_Y279_K277Q] | 1.38 |
| ADSLRYIFPKL [EIF2B3_Y92_YF] | 0.566 |
| IVEYAYNDKAV [PUM3_Y259_I264V] | 1.01 |
| YPLELYERVRI [PRKCG_Y312_M317I] | 0.58 |
| FDNSVYQKTTE [LDLR_Y828_P826S] | 0.701 |
| SVFNNYIQTLG [CTNND1_Y174_S171F] | 0.557 |
| DAKAIYDFTDT [PDK1_Y136] | 1.03 |
| TIMTNYNPNYC [ALK_Y1092_D1091N] | 0.558 |
| TEYSQYMRRKN [MAX_Y73_I71S] | 0.418 |
| HLWRIYYDITD [MMP27_Y307] | 1.86 |
| MKKQKYGRIIM [HSD17B4_Y143] | 0.771 |
| PPEFSYGLQTQ [SRA1_Y35_Q32E] | 0.661 |

Each sequence was assayed on AncSZ in the same assay as above.

| Sequence | phosphorylation enrichment |
| --- | --- |
| HSGIFYKPESL [L2HGDH_Y103_YF] | 1.34 |
| LNCDRYSVGLL [PDE6A_Y275] | 1.16 |
| KVPELYEIHKE [BCR_Y554] | 1.03 |
| WEQELYSQLVY [WAS_Y102] | 2.3 |
| RVLQLYGCSPS [ASTL_Y279_K277Q] | 1.69 |
| ADSLRYIFPKL [EIF2B3_Y92_YF] | 0.552 |
| IVEYAYNDKAV [PUM3_Y259_I264V] | 0.989 |
| YPLELYERVRI [PRKCG_Y312_M317I] | 1.08 |
| FDNSVYQKTTE [LDLR_Y828_P826S] | 0.924 |
| SVFNNYIQTLG [CTNND1_Y174_S171F] | 0.705 |
| DAKAIYDFTDT [PDK1_Y136] | 1.3 |
| TIMTNYNPNYC [ALK_Y1092_D1091N] | 0.758 |
| TEYSQYMRRKN [MAX_Y73_I71S] | 0.674 |
| HLWRIYYDITD [MMP27_Y307] | 3.29 |
| MKKQKYGRIIM [HSD17B4_Y143] | 0.497 |
| PPEFSYGLQTQ [SRA1_Y35_Q32E] | 0.724 |

Each sequence was assayed against Fyn (UniProt P06241) in the same assay as above.
Fyn, sequence (P06241 whole entry, looked up): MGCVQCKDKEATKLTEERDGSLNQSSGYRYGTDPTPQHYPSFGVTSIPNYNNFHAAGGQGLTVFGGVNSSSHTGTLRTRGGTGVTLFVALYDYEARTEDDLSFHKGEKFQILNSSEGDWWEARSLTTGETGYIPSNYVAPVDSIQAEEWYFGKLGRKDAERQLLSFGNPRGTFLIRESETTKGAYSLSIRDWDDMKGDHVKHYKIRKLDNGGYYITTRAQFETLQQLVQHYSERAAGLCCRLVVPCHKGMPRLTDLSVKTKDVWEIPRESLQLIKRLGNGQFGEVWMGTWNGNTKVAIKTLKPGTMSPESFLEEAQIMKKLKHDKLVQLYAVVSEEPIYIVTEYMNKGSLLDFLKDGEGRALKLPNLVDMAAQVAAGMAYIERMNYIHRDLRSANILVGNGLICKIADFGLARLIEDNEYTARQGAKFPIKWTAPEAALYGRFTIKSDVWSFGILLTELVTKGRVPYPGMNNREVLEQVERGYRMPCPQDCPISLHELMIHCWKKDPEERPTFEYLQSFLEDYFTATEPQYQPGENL

| Sequence | phosphorylation enrichment |
| --- | --- |
| HSGIFYKPESL [L2HGDH_Y103_YF] | 0.642 |
| LNCDRYSVGLL [PDE6A_Y275] | 0.734 |
| KVPELYEIHKE [BCR_Y554] | 0.631 |
| WEQELYSQLVY [WAS_Y102] | 9.39 |
| RVLQLYGCSPS [ASTL_Y279_K277Q] | 1.54 |
| ADSLRYIFPKL [EIF2B3_Y92_YF] | 0.474 |
| IVEYAYNDKAV [PUM3_Y259_I264V] | 0.418 |
| YPLELYERVRI [PRKCG_Y312_M317I] | 0.584 |
| FDNSVYQKTTE [LDLR_Y828_P826S] | 0.515 |
| SVFNNYIQTLG [CTNND1_Y174_S171F] | 0.442 |
| DAKAIYDFTDT [PDK1_Y136] | 7.96 |
| TIMTNYNPNYC [ALK_Y1092_D1091N] | 0.565 |
| TEYSQYMRRKN [MAX_Y73_I71S] | 0.536 |
| HLWRIYYDITD [MMP27_Y307] | 2.6 |
| MKKQKYGRIIM [HSD17B4_Y143] | 0.443 |
| PPEFSYGLQTQ [SRA1_Y35_Q32E] | 0.446 |

What follows are sequences tested against MERTK (UniProt Q12866) in the same assay as above.
MERTK, sequence (Q12866 whole entry, looked up): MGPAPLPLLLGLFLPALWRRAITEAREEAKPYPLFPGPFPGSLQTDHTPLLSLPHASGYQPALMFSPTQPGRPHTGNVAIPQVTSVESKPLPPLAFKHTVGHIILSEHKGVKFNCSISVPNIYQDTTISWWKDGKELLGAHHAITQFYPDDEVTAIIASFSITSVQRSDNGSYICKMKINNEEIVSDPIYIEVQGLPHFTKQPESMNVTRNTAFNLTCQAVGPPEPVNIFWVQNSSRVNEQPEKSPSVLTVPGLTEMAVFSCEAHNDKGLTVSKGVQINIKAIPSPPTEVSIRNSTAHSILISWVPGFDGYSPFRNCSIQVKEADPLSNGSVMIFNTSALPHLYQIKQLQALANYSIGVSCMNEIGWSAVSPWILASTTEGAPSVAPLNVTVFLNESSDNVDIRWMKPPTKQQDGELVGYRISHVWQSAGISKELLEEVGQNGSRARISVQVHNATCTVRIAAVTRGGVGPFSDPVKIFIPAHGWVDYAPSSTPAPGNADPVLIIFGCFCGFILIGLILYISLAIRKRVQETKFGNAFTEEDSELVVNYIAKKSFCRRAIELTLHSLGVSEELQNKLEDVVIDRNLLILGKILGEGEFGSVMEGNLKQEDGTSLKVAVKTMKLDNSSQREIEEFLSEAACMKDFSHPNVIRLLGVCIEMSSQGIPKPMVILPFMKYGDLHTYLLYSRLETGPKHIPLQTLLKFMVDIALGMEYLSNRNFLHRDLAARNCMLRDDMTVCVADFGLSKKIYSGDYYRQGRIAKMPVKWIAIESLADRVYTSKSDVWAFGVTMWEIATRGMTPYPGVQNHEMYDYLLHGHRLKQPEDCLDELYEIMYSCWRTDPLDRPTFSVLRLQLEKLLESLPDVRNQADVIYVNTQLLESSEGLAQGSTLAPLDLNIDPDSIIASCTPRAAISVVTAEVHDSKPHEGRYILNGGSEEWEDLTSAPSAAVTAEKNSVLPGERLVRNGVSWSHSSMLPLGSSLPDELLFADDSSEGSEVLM

| Sequence | phosphorylation enrichment |
| --- | --- |
| HSGIFYKPESL [L2HGDH_Y103_YF] | 0.934 |
| LNCDRYSVGLL [PDE6A_Y275] | 0.709 |
| KVPELYEIHKE [BCR_Y554] | 0.619 |
| WEQELYSQLVY [WAS_Y102] | 9.2 |
| RVLQLYGCSPS [ASTL_Y279_K277Q] | 0.576 |
| ADSLRYIFPKL [EIF2B3_Y92_YF] | 0.459 |
| IVEYAYNDKAV [PUM3_Y259_I264V] | 0.5 |
| YPLELYERVRI [PRKCG_Y312_M317I] | 0.437 |
| FDNSVYQKTTE [LDLR_Y828_P826S] | 0.432 |
| SVFNNYIQTLG [CTNND1_Y174_S171F] | 0.411 |
| DAKAIYDFTDT [PDK1_Y136] | 5.88 |
| TIMTNYNPNYC [ALK_Y1092_D1091N] | 0.407 |
| TEYSQYMRRKN [MAX_Y73_I71S] | 0.558 |
| HLWRIYYDITD [MMP27_Y307] | 1.77 |
| MKKQKYGRIIM [HSD17B4_Y143] | 0.499 |
| PPEFSYGLQTQ [SRA1_Y35_Q32E] | 0.428 |

The sequences below were run against Hck (UniProt P08631) in the same assay as above.
Hck, sequence (P08631 whole entry, looked up): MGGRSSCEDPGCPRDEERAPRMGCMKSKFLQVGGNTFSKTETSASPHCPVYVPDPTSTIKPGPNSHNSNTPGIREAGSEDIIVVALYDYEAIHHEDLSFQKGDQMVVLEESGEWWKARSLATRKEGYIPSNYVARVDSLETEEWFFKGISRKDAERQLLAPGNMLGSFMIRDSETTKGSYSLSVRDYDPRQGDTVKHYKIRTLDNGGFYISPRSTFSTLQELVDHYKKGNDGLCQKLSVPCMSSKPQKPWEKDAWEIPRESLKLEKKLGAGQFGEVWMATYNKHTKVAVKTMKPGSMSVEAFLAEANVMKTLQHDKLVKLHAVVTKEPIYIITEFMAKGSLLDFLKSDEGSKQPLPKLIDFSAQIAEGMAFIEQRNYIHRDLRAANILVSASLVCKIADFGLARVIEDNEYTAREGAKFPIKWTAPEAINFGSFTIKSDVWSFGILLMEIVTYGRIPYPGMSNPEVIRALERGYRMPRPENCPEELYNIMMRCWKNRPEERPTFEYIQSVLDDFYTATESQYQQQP

| Sequence | phosphorylation enrichment |
| --- | --- |
| HSGIFYKPESL [L2HGDH_Y103_YF] | 0.704 |
| LNCDRYSVGLL [PDE6A_Y275] | 0.889 |
| KVPELYEIHKE [BCR_Y554] | 0.853 |
| WEQELYSQLVY [WAS_Y102] | 8.84 |
| RVLQLYGCSPS [ASTL_Y279_K277Q] | 2.33 |
| ADSLRYIFPKL [EIF2B3_Y92_YF] | 0.413 |
| IVEYAYNDKAV [PUM3_Y259_I264V] | 0.42 |
| YPLELYERVRI [PRKCG_Y312_M317I] | 1.74 |
| FDNSVYQKTTE [LDLR_Y828_P826S] | 0.668 |
| SVFNNYIQTLG [CTNND1_Y174_S171F] | 0.463 |
| DAKAIYDFTDT [PDK1_Y136] | 3.18 |
| TIMTNYNPNYC [ALK_Y1092_D1091N] | 0.548 |
| TEYSQYMRRKN [MAX_Y73_I71S] | 0.562 |
| HLWRIYYDITD [MMP27_Y307] | 3.14 |
| MKKQKYGRIIM [HSD17B4_Y143] | 0.396 |
| PPEFSYGLQTQ [SRA1_Y35_Q32E] | 0.416 |

These sequences were tested against Jak2 (UniProt O60674) in the same assay as above.
Jak2, sequence (O60674 whole entry, looked up): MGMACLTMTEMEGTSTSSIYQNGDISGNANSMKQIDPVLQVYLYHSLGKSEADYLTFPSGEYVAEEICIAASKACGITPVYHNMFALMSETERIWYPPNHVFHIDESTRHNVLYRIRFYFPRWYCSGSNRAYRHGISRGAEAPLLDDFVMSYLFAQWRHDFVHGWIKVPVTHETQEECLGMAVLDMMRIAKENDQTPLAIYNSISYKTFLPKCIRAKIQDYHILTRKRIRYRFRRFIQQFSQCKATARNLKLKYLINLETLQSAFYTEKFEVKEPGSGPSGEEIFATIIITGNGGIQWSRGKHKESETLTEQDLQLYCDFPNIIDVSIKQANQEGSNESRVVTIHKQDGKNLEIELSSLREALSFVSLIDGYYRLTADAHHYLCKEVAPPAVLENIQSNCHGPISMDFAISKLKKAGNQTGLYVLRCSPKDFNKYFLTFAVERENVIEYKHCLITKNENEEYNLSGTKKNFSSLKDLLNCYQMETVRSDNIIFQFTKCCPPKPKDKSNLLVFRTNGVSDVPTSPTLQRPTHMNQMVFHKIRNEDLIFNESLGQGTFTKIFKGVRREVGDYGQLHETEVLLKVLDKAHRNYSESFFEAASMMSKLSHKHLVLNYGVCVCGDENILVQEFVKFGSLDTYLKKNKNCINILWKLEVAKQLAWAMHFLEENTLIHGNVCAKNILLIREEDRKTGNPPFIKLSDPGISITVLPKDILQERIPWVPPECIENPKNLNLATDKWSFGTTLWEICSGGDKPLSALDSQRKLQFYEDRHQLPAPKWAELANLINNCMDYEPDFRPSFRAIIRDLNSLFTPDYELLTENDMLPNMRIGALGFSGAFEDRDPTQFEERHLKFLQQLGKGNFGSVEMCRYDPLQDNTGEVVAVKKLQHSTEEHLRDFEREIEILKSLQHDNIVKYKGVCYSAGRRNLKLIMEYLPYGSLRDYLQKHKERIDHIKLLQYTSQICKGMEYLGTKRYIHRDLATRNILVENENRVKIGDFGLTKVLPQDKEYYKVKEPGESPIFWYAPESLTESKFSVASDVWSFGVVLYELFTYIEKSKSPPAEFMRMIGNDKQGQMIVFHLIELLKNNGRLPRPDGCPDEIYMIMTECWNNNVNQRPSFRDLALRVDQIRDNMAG

| Sequence | phosphorylation enrichment |
| --- | --- |
| HSGIFYKPESL [L2HGDH_Y103_YF] | 2.08 |
| LNCDRYSVGLL [PDE6A_Y275] | 1.2 |
| KVPELYEIHKE [BCR_Y554] | 0.766 |
| WEQELYSQLVY [WAS_Y102] | 1.35 |
| RVLQLYGCSPS [ASTL_Y279_K277Q] | 1.48 |
| ADSLRYIFPKL [EIF2B3_Y92_YF] | 0.64 |
| IVEYAYNDKAV [PUM3_Y259_I264V] | 1 |
| YPLELYERVRI [PRKCG_Y312_M317I] | 0.895 |
| FDNSVYQKTTE [LDLR_Y828_P826S] | 0.673 |
| SVFNNYIQTLG [CTNND1_Y174_S171F] | 0.775 |
| DAKAIYDFTDT [PDK1_Y136] | 0.994 |
| TIMTNYNPNYC [ALK_Y1092_D1091N] | 0.639 |
| TEYSQYMRRKN [MAX_Y73_I71S] | 0.507 |
| HLWRIYYDITD [MMP27_Y307] | 3.36 |
| MKKQKYGRIIM [HSD17B4_Y143] | 0.998 |
| PPEFSYGLQTQ [SRA1_Y35_Q32E] | 0.997 |
